Source: US20240294650A1

B1: MTK-217 (antibody, human IgG1, V domains shown)
VH: QVQLQQPGTEVVKPGASVKMSCRASGYTFTSYWITWVKQRPGQGLEWIGDIHPGSGINNYNEKFRSKATLTVDTSSSTVYMELSSLTSEDSAVYYCAKGGYYGSSYYVMDYWGQGTSVTVSS
VL: DILLTQSPAILSVSPGERVSFSCRASQTIGTSIHWYQQRTNDSPRLLIKYASESISGIPSRFSGSGSGTDFTLSINSVESEDIADYYCQQSNDWPYTFGGGTKLEIK
B2: MTK-221 (antibody, human IgG1, V domains shown)
VH: QVTLKESGPGMLQSSQTLSLTCSFSGFSLSTSGMGVSWIRQPSGKGLEWLAHIYWDDDKRYNTSLQSRLTISKDTSRNQVFLKITSVDTADTATYFCGRLGAYSAFPYYFDYWGQGTTLTVSS
VL: DIQMTQSPSSLSASLGGKVTITCKASQDIHKHIAWYQHKPGKGPRLLIHYTSTLQPGIPSRFSGSGSGRDYSFSISNLEPEDLATYYCLQYDNLWTFGGGTKLEIK
B3: MTK-201 (antibody, human IgG1, V domains shown)
VH: QVQLRQSGPGLVQPSQSLSITCTVSGFSLSNYGLHWVRQSPGKGLEWLGVIWSGGITDYNAAFISRLSIIKDNSRSQVFFKMNSLQADDTAIYYCARKGHDPYAMDFWGQGTSVTVSS
VL: QIVLTQSPPIMSAFLGERVTMTCTASSSVSSSYLHWYRQMPGSSPKLWIYDTSNLASGVPARFSGSGSGTSYSLTISSMEAEDAATYYCHQYHHSPYTFGGGTKLEIK
B4: MTK-208 (antibody, human IgG1, V domains shown)
VH: QVQLQQPGAELVVPGASVRLSCKASGYTFINYWMHWVKQRPGQGLEWIGEIDPSDSYANYNQKFKDKSTLSLDKSSSTAYMQLSSLTSEDSAVYYCARCDYYGRLDYWGQGTTLTVSS
VL: QVVLTQSPAIMSASPGEKVTITCSASSSVSYMLWFQQKPGTSPKLWIYSTSNLASGVPARFSGSGSGTSYSLTISRLEAEDAATYYCQQRSSYPPITFGAGTKLELK
B5: MTK-210 (antibody, human IgG1, V domains shown)
VH: QVQLQQSGPELVKPGASVKISCKASDYEFSRSWMNWVKQRPGKGLEWIGRIYPGDGDTNYNGKFKGKATLTADKSSNTAYMQLNSLTSEDSAVYFCARKGGYYYSISNYFDYWGQGTTLTVSS
VL: QIVLTQSPAIMSASPGVKVTMTCSASSSVSYMHWYQQKPGSSPRLLIYDTSNLASGVPVRFSGSGSGTSYSLTISRMEAEDAATYYCQQWSSYPPYTFGGGTKLEIK

target: endogenous murine MerTK on bone marrow-derived macrophages (mouse) (UniProt Q60805); assay: FACS, mouse BMDM, WT minus MerTK KO
Sequence (Q60805 19-994): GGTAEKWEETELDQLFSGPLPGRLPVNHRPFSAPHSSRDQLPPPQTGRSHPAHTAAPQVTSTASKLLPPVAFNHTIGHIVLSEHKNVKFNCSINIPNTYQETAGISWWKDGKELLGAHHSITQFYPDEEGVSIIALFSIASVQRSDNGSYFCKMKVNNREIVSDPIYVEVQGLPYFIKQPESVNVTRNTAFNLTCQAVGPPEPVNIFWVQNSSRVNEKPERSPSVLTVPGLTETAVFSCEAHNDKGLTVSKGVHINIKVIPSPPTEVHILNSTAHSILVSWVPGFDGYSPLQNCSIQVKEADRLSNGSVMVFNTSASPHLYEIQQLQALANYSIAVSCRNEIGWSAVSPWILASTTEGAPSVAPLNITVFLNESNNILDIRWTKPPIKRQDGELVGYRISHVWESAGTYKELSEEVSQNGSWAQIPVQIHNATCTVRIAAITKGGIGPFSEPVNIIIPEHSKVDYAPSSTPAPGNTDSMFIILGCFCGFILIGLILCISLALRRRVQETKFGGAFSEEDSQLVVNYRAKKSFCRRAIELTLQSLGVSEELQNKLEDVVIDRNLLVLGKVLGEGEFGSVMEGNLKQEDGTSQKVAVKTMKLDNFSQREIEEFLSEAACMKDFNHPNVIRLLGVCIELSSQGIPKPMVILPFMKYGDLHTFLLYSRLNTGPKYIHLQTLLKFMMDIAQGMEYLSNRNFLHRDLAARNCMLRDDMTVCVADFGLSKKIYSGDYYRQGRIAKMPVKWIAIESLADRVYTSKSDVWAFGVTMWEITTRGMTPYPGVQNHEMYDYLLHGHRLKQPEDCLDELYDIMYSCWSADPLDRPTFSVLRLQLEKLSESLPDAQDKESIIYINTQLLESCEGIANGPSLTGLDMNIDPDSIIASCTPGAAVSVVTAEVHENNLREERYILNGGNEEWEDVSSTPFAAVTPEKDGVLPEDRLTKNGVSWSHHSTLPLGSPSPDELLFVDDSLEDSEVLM

Binder	MFI [MFI]
B1	1130
B2	993
B3	1030
B4	1170
B5	1270
